Experiment [1] deals with T1, human SIRPα variant 1 (human, UniProt P78324 31-504).
T1 construct: full length ORF on transfected CHO-K1 or HEK293 cells; entry includes the signal peptide; also called hSIRPαV1; SIRPαV1
The experiment in a line: CELISA, CHO-K1 transfectants. On the procedure:
(§1) The binding specificity of antibodies hSIRPα.40A and hSIRPα.50A to hSIRPα were compared in a CELISA format. In short, CHO-K1 cells were transiently transfected with hSIRPαV1, hSIRPαV2, hSIRPβ1, hSIRPβL, and hSIRPγ cDNAs. Subsequently, hSIRPα binding was assessed by CELISA using CHO-K1.hSIRPαV1, CHO-K1.hSIRPαV2, CHO-K1.hSIRPβ1, CHO-K1.hSIRPβL, and CHO-K1.hSIRPγ cells. Detection of bound antibody was done with goat-anti-mouse IgG-HRP (Southern Biotech).
(§2) In addition, the specificity of hSIRPα.40A for all known of hSIRPα alleles (allelic variants as described by Takenaka et al., Nat Immunol. 8:1313-1323 (2007) was further investigated by CELISA using the same strategy as above. To this end, hSIRPα.40A binding was assessed using CHO-K1 cells that were transiently transfected with cDNAs encoding full length hSIRPαV1, hSIRPαV2, hSIRPαV3 (NA07056_V3) (SEQ ID NO: 44), hSIRPαV4 (NA11832_V4) (SEQ ID NO: 46), hSIRPαV5 (NA18502_V5) (SEQ ID NO: 48), hSIRPαV6 (NA18507_V6) (SEQ ID NO: 50), hSIRPαV8 (NA18570_V8) (SEQ ID NO: 52), and hSIRPαV9 (NA18943_V9) (SEQ ID NO: 54).

The target of a further experiment is T2, hSIRPαV5 (NA18502_V5) (human, UniProt P78324 31-504).
T2 construct: also called human SIRPαV5
The experiment can be described thus: CELISA, CHO-K1 transfectants. On the procedure:
as §1, §2

Experiment [2] addresses T3, human SIRPα variant 2 (human, UniProt P78324 31-504).
T3 construct: full length ORF on transfected CHO-K1 cells; also called hSIRPαV2; SIRPαV2
The experiment can be described thus: CELISA, CHO-K1 transfectants. On the procedure:
as §1, §2

The next experiment concerns the target T4, hSIRPαV4 (NA11832_V4) (human, UniProt P78324 31-504).
T4 construct: also called human SIRPαV4
T4 chain: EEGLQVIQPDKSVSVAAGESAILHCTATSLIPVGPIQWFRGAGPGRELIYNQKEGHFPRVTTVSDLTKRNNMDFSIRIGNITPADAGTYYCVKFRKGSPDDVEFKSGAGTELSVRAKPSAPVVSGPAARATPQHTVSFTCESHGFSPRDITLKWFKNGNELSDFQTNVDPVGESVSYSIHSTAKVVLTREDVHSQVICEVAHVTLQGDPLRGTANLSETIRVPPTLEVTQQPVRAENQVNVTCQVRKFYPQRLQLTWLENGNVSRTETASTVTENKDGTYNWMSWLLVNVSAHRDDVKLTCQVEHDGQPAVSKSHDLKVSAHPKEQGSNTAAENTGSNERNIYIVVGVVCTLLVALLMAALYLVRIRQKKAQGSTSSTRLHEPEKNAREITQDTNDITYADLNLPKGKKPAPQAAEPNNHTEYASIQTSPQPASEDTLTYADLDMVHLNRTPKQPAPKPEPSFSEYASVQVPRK
The experiment in a line: CELISA, CHO-K1 transfectants. On the procedure: as §1, §2

For the next experiment, the target named is T5, hSIRPαV6 (NA18507_V6) (human, UniProt P78324 31-504).
T5 construct: also called human SIRPαV6
The experiment can be described thus: CELISA, CHO-K1 transfectants. On the procedure:
as §1, §2

The target of a further experiment is T6, hSIRPαV9 (NA18943_V9) (human, UniProt P78324 31-504).
T6 construct: also called human SIRPαV9
The experiment can be described thus: CELISA, CHO-K1 transfectants. On the procedure: as §1, §2

Experiment [3] has as its target T3, human SIRPα variant 2. The experiment in a line: flow cytometry, blockade of DyLight488-hCD47/Fc binding to THP-1 cells. Summed up: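 THP-1 or U-937 monocyte cells were placed in 96-well round-bottom plates and incubated at 4 °C for 45 minutes in PBS/1% BSA containing FcR Blocking Reagent and a dilution series of anti-SIRPα antibody. After a further wash, cells were resuspended with 0.1 μg/mL DAPI, read by flow cytometry and analyzed in FlowJo. IC50 is defined as the antibody concentration that gives half-maximal inhibition of CD47/Fc binding.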
Target sequence in this assay (P78324 other isoform, or with tags, fused parts or gaps mutant limits assumed): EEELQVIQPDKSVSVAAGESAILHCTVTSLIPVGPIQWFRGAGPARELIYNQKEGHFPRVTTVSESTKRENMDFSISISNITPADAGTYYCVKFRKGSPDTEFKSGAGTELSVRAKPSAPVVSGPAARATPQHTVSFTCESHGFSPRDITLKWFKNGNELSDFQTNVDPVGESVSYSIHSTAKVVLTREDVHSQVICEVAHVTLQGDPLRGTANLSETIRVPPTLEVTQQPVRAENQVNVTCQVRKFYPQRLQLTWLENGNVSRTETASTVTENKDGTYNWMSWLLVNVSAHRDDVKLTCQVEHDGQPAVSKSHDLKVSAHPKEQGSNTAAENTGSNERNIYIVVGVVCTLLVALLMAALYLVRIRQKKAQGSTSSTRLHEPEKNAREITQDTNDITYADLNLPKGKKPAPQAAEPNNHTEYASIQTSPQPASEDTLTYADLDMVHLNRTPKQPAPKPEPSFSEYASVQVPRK
In general terms: Flow cytometry measures light scatter and fluorescence of single cells or particles in a stream.

Experiment [4] addresses T1, human SIRPα variant 1. The experiment in a line: flow cytometry, blockade of DyLight488-hCD47/Fc binding to U-937 cells. On the procedure: hCD47 blockade for the KWAR23, clone 18D5, and hSIRPα.40A antibodies was assessed by flow cytometry. For this purpose, THP-1 (ATCC TIB-202) and U-937 (ATCC CRL-1593.2) monocyte cell lines were used as the source of hSIRPα in the assay. THP-1 and U-937 cells were seeded in 96-well round bottomed tissue culture plates and incubated for 45 minutes with FcR Blocking Reagent (Miltenyi Biotec) and indicated anti-hSIRPα antibodies (20 μg/mL and dilutions thereof) in PBS/1% BSA at 4° C. […] After this labeling procedure, cells were washed two times, resuspended in PBS/1% BSA containing 0.1 μg/mL DAPI (BioLegend), and analysed by flow cytometry on the FACSVerse (BD Biosciences). Data were processed and analysed with FlowJo V10 software (FlowJo, LLC) and plotted using GraphPad Prism 6 (GraphPad Software, Inc.). Binding of recombinant hCD47 fused to an Fc domain of human IgG1 was monitored in the presence of increasing amounts of the anti-hSIRPα antibodies. […] IC50 values represent the concentration at which half of the inhibition is observed.

B1: hSIRPα.50A (antibody, V domains shown)
VH: QVQLQQSGPELVKPGASVRISCKASGFTFTNYYIHWVKQRPGQGLEWIGWIYPGNVNTKYNEKFKAKATLTADKSSTTAYMQLSSLASEDSAVYFCARPTIIATDFDVWGAGTTVTVSS
VL: DIVMTQSHKFMSTSVGDRVNITCKASQGVGTAVGWYQQKPGQSPRLLIYWASTRHTGVPDRFTGSGSGTDFSLAISNVQSEDLADYFCQQYSTYPFTFGGGTNLEIK
notes: light chain constant domain not tied; also called mouse hSIRPα.50A; hSIRPα.50A.mIgG1
As a reminder, the EC50 is the concentration that produces a half-maximal response. A low value points to higher potency in that assay. The term IC50 denotes the concentration at which inhibition is half-maximal. Read a low IC50 as greater potency in that assay. As to B1, the EC50 with human SIRPα variant 1 [1] stood at 1690 pM; in the experiment with hSIRPαV5 (NA18502_V5) it was 1260 pM; with human SIRPα variant 2 [2], 1070 pM; in the experiment with hSIRPαV4 (NA11832_V4), 1300 pM; in the experiment with hSIRPαV6 (NA18507_V6), 2220 pM; with hSIRPαV9 (NA18943_V9), 1370 pM. In addition, the concentration for half-maximal inhibition (IC50) with human SIRPα variant 2 [3] worked out at 7830 pM.

B2: hSIRPα.40A (antibody, mouse IgG1, kappa, V domains shown)
VH: EVQFQQSGTVLARPGTSVKMSCKASGSTFTSYWMHWVKQGPGQGLQWIGAIYPVNNDTTYNQKFKGKAELTVVTSTSTAYMEVSSLTNEDSAVYYCTRSFYYSLDAAWFVYWGQGTLVTVSA
VL: DIQMTQSPSSLSASLGERVSLTCRASQDIGSRLNWLQQEPDGTIKRLIYATSSLDSGVPKRFSGSRSGSDYSLTISGLESEDFVDYYCLQYASSPFTFGGGTKLEINR
notes: mouse antibody, full chains without signal peptide; also called mouse hSIRPα.40A
As to B2, the concentration for a half-maximal effect (EC50) in the experiment with human SIRPα variant 1 [1] was 134 pM; in the experiment with hSIRPαV5 (NA18502_V5), 115 pM; in the experiment with human SIRPα variant 2 [2], 89 pM; in the experiment with hSIRPαV4 (NA11832_V4) it was 100 pM; with hSIRPαV6 (NA18507_V6) it was 136 pM; with hSIRPαV9 (NA18943_V9), 115 pM. For the same molecule, the IC50 with human SIRPα variant 2 [3] came to 646 pM; with human SIRPα variant 1 [4], 1420 pM.

B3: KWAR23 (antibody, V domains shown)
VH: EVQLQQSGAELVKPGASVKLSCTASGFNIKDYYIHWVQQRTEQGLEWIGRIDPEDGETKYAPKFQDKATITADTSSNTAYLHLSSLTSEDTAVYYCARWGAYWGQGTLVTVSS
VL: QIVLTQSPAIMSASPGEKVTLTCSASSSVSSSYLYWYQQKPGSSPKLWIYSTSNLASGVPARFSGSGSGTSYSLTISSMEAEDAASYFCHQWSSYPRTFGAGTKLELK
B3: the IC50 with human SIRPα variant 1 [4] was 284 pM.

The values above are taken from patent publication US20180312587A1 (ADURO BIOTECH HOLDINGS EUROPE B V, published 2018).
